Data taken from patent US20190002515A1 (published 2019).

Target: T1, GAGE-1 peptide on HLA-DRA*01:01 / HLA-DRB5*01:01 (human)
T1 peptide: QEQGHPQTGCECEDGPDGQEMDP
Assay: cytokine release

- binding result: recognises
B1: TCR specific for GAGE-1 of SEQ ID NOs 7 and 8 (TCR, V domains shown)
Valpha: EDKVVQSPLSLVVHEGDTVTLNCSYEVTNFRSLLWYKQEKKAPTFLFMLTSSGIEKKSGRLSSILDKKELSSILNITATQTGDSAIYLCAERTQGGSEKLVFGKGTKLTVNP
Vbeta: DAGITQSPRHKVTETGTPVTLRCHQTENHRYMYWYRQDPGHGLRLIHYSYGVKDTDKGEVSDGYSVSRSKTEDFLLTLESATSSQTSVYFCATQRNTEAFFGQGTRLTVV
